Like-named read-outs stand apart in the source and are kept apart here. Blank lines part the entries; values can stand above or below the molecule they belong to.
Tests used:
Test in all cases: other fluorescence titration
[1] = biological target: CyPet-Myo1^IQ1-YPet FRET reporter protein (S. pombe)
[2] = biological target: CyPet-Myo1^IQ12-YPet FRET reporter protein (S. pombe)
[3] = biological target: CyPet-Myo1^IQ12-S742D-YPet FRET reporter protein (S. pombe)
[4] = biological target: CyPet-Myo1^IQ1-YPet FRET reporter protein (S. pombe); remark: listed apart in the source
[5] = biological target: CyPet-Myo1^IQ12-YPet FRET reporter protein (S. pombe); remark: listed apart in the source

Kd [1]: < 100 nM | KD of the first binding event [2]: < 0.1 µM | KD of the second binding event [2]: 0.68 µM
Molecule: Cam1 (fission yeast calmodulin), amino-terminally acetylated (from UniProt P05933 1-150) (natural protein)

Kd [3]: 250 nM | stoichiometry N [3]: 1 | Kd [4]: 400 nM | KD of the phase with 70% of the signal change [5]: 1.1 µM | stoichiometry N [5]: 2
B1: Cam2 (fission yeast calmodulin-like protein) (natural protein)
chain: MPASKEQTDEMKEAFVLYDIDKDGLIPTSHVGSVLRSLGINVTDAELAKLSNELGDAIDEKKFMSFVSNKLRETESEEEYIKAFRVFDKDNSGYIETAKFADYMKTLGEKLSDNEVQLMVQEADPTNSGSFDYYDFVQRIMAK

From publication doi:10.1101/498865
